Data taken from patent US20250263444A1 (KOREA UNIVERSITY RESEARCH AND BUSINESS FOUNDATION SEJONG …, published 2025).

T1: vIRF3 mutant with deleted aa250-260 (Kaposi's sarcoma-associated herpesvirus …, UniProt F5HIC6 1-566)
T1 construct: V5-tagged, expressed in LECs; end of the protein at 566 from the TM3 range (430-566); also called vIRF3(Δ250-260)
T1 sequence: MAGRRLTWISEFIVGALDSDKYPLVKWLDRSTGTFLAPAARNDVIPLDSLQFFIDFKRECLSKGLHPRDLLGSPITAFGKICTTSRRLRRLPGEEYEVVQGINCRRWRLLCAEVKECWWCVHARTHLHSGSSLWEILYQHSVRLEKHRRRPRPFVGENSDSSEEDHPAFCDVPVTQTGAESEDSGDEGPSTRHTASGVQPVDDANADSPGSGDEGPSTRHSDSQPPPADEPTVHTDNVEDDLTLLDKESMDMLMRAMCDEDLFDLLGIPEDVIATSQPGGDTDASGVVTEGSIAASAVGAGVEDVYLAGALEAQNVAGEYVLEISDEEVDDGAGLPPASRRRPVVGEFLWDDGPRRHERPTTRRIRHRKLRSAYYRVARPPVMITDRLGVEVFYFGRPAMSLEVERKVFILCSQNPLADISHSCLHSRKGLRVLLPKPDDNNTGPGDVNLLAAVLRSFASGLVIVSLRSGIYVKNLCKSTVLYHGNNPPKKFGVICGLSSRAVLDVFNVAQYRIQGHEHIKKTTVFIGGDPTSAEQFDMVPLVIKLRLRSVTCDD

T2: vIRF3 (Δ250-280) mutant (Kaposi's sarcoma-associated herpesvirus …, UniProt F5HIC6 1-566)
T2 construct: V5-tagged, stably expressed in LECs; also called V5/vIRF3(Δ250-280); V5-vIRF3(Δ250-280)
T2 sequence: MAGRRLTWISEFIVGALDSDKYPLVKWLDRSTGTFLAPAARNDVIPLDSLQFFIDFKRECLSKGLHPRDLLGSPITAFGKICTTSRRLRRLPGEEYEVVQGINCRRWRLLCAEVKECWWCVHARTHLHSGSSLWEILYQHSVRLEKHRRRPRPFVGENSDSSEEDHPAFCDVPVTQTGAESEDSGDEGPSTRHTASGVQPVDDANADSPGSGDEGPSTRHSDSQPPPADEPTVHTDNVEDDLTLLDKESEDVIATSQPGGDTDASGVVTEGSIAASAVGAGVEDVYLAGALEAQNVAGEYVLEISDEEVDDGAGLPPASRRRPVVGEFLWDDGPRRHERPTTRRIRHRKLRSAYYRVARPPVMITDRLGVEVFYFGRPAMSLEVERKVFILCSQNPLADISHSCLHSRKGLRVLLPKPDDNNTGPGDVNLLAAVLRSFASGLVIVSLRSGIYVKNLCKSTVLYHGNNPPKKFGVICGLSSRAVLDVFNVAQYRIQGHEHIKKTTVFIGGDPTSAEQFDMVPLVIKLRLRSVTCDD

B1: pyruvate kinase M2 (PKM2) (enzyme)
chain: not shown
notes: Either endogenous PKM2 of LECs or HA-tagged hPKM2 from pCMV-HA-hPKM2 in 293T cells; also called PMK2; hPKM2
B2: Kaposi's sarcoma-associated herpesvirus (KSHV) viral interferon regulatory factor 3 (vIRF3), wild type (other)
chain: MAGRRLTWISEFIVGALDSDKYPLVKWLDRSTGTFLAPAARNDVIPLDSLQFFIDFKRECLSKGLHPRDLLGSPITAFGKICTTSRRLRRLPGEEYEVVQGINCRRWRLLCAEVKECWWCVHARTHLHSGSSLWEILYQHSVRLEKHRRRPRPFVGENSDSSEEDHPAFCDVPVTQTGAESEDSGDEGPSTRHTASGVQPVDDANADSPGSGDEGPSTRHSDSQPPPADEPTVHTDNVEDDLTLLDKESACALMYHVGQEMDMLMRAMCDEDLFDLLGIPEDVIATSQPGGDTDASGVVTEGSIAASAVGAGVEDVYLAGALEAQNVAGEYVLEISDEEVDDGAGLPPASRRRPVVGEFLWDDGPRRHERPTTRRIRHRKLRSAYYRVARPPVMITDRLGVEVFYFGRPAMSLEVERKVFILCSQNPLADISHSCLHSRKGLRVLLPKPDDNNTGPGDVNLLAAVLRSFASGLVIVSLRSGIYVKNLCKSTVLYHGNNPPKKFGVICGLSSRAVLDVFNVAQYRIQGHEHIKKTTVFIGGDPTSAEQFDMVPLVIKLRLRSVTCDD

Tests used:
[1] = molecular target: T1, vIRF3 mutant with deleted aa250-260; assay: IP with anti-PKM2, blot with anti-V5, LEC lysates
vIRF3 (Δ250-280) mutant = molecular target: T2, vIRF3 (Δ250-280) mutant; assay: told in words; LECs expressing the mutant
[2] = molecular target: B1; assay: cell-based or functional assay

Binder | binding result [1] | binding result (vIRF3 (Δ250-280) mutant) | Boyden chamber cell migration of LECs [2] [fold]
B1 | no binding | no binding | –
B2 | – | – | 2
